Article PMC6128827

Target: three-helix bundle composed of syntaxin-1A and SNAP-25 (rat) (UniProt P32851)
Assay: magnetic tweezers; single pre-assembled SNARE complex held between a PEG-biotin glass surface (NeutrAvidin) and an anti-digoxigenin magnetic bead by two 510-bp DNA handles; force ramps at 1 pN/s, force jumps and 1.2-kHz tracking at 10-16 pN; PBS pH 7.4 with 2.5 uM free SNAP-25; no Cpx

## rat synaptobrevin-2 (2–97, L32C/I97C) (from UniProt P63045 2-97) (domain or fragment)
  average unzipping force (without Cpx): 14.4 pN
